Where two headings read alike, the source gives them in different places.
Legend:
[1] = system: C=C(O[C@@H]1C=C(C(=O)O)C=C[C@H]1O)C(=O)O; assay: Anthranilate synthase enzyme assay and kinetic analysis, N52F mutant; type: biochemical, Agrobacterium tumefaciens; details: other: N52F, pH 7.0, 10 mM L-glutamine, 2.5–100 μM chorismate, 25.0 °C
From the text: (§1) Site directed mutagenesis was used to generate ten single amino acid substitutions six sites. The mutations were introduced into the Agrobacterium tumefaciens AS in pMON34705 using the QuikChange™ Site-Directed Mutagenesis Kit (Stratagene). The primers used for site directed mutagenesis were SEQ ID NO:9–42 (FIG. 7; F=forward, R=reverse). Each primer sequence is specific for alteration of the nucleic acid at a specific location in the sequence and thus changing the encoded codon to code for a new amino acid. For example, S51C designates a change from serine to cysteine at amino acid position 51 in the Agrobacterium tumefaciens AS peptide sequence.
(§2) Following mutagenesis the sequence of the entire gene was reconfirmed and the variants expressed and purified from E. coli as described below for the wild type enzyme. The resultant plasmids comprising mutant Agrobacterium tumefaciens AS are suitably cloned into a plasmid for overproduction of protein using the T7 expression system as described in Example 1.
(§3) Agrobacterium tumefaciens AS wild type and mutant enzymes were expressed in E. coli as described in Example 1. The purification of all the Agrobacterium tumefaciens AS enzymes, including wild type and mutants therof, was performed at 4° C. The cells (approximate wet weight of 1 g) were suspended in 20 ml of purification buffer (50 mM potassium phosphate, pH […], 10 mM 2-mercaptoethanol, 10% glycerol) and lysed by ultrasonication (Branson sonifier Cell Disruptor, W185). Supernatant was collected after centrifugation of the homogenate at 20,000× g for 15 min. The supernatant was subjected to ammonium sulfate fractionation (30 to 65% saturation). The precipitate was collected after centrifugation at 20,000× g for […] and dissolved in 3 ml of the purification buffer and then loaded as a whole on an Econo-Pac 10DG desalting column, pre-equilibrated with the same buffer. Fractions containing the enzyme were detected by the developed assay and pooled. The pooled enzyme (4.3 mls) was loaded on a 10 ml DEAE Sephacel (Pharmacia Biotech) column (1.5×7.5 cm) equilibrated with the same buffer. The column was washed with 30 ml of the purification buffer and the enzyme was eluted with 30 ml of 50 mM NaCl in the same buffer. Fractions containing high AS activity were pooled and precipitated by 65% ammonium sulfate saturation and isolated and desalted as above. Fractions containing the enzyme were pooled and stored at −80° C.
(§4) The standard assay for Agrobacterium tumefaciens AS was performed at 25° C. in an assay buffer containing 100 mM potassium phosphate, pH 7.0, 1 0 mM MgCl2, 1 mM dithiothreitol, 200 μM chorismate and 10 mM L-glutamine. The reaction was started by adding 30 μl of enzyme to the reaction mixture and mixing. The formation of anthranilate was directly monitored by the absorbance increase at […] for 3 min. Initial rate of reaction was calculated as unit absorbance increase per second based on the slope of the absorbance change over the reaction time. Km for chorismate (Km^Cho) was determined in the total volume of 1 ml assay buffer containing 100 mM potassium phosphate, pH 7.0, 10 mM MgCl2, 1 mM dithiothreitol with 10 mM L-glutamine and varying the concentration of chorismate between 2.5–100 μM chorismate. […] Kinetic parameters and IC50 of AS were calculated after fitting the data to a non-linear regression program (GraFit).

NC(=O)CC[C@H](N)C(=O)O [2] = assay: as above; type: biochemical, Agrobacterium tumefaciens; details: other: N52F, pH 7.0, 200 μM chorismate, 0.1–2 mM L-glutamine, 25.0 °C
From the text: as §1, §2, §3, §4

[3] = system: C=C(O[C@@H]1C=C(C(=O)O)C=C[C@H]1O)C(=O)O; assay: Anthranilate synthase enzyme assay and kinetic analysis, P293A mutant; type: biochemical, Agrobacterium tumefaciens; details: other: P293A, pH 7.0, 10 mM L-glutamine, 2.5–100 μM chorismate, 25.0 °C
From the text: as §1, §2, §3, §4

NC(=O)CC[C@H](N)C(=O)O [4] = assay: as above; type: biochemical, Agrobacterium tumefaciens; details: other: P293A, pH 7.0, 200 μM chorismate, 0.1–2 mM L-glutamine, 25.0 °C
From the text: as §1, §2, §3, §4

[5] = system: C=C(O[C@@H]1C=C(C(=O)O)C=C[C@H]1O)C(=O)O; assay: Anthranilate synthase enzyme assay and kinetic analysis, P293G mutant; type: biochemical, Agrobacterium tumefaciens; details: other: P293G, pH 7.0, 10 mM L-glutamine, 2.5–100 μM chorismate, 25.0 °C
From the text: as §1, §2, §3, §4

NC(=O)CC[C@H](N)C(=O)O [6] = assay: as above; type: biochemical, Agrobacterium tumefaciens; details: other: P293G, pH 7.0, 200 μM chorismate, 0.1–2 mM L-glutamine, 25.0 °C
From the text: as §1, §2, §3, §4

[7] = system: C=C(O[C@@H]1C=C(C(=O)O)C=C[C@H]1O)C(=O)O; assay: Anthranilate synthase enzyme assay and kinetic analysis, S50K mutant; type: biochemical, Agrobacterium tumefaciens; details: other: S50K, pH 7.0, 10 mM L-glutamine, 2.5–100 μM chorismate, 25.0 °C
From the text: as §1, §2, §3, §4

NC(=O)CC[C@H](N)C(=O)O [8] = assay: as above; type: biochemical, Agrobacterium tumefaciens; details: other: S50K, pH 7.0, 200 μM chorismate, 0.1–2 mM L-glutamine, 25.0 °C
From the text: as §1, §2, §3, §4

[9] = system: C=C(O[C@@H]1C=C(C(=O)O)C=C[C@H]1O)C(=O)O; assay: Anthranilate synthase enzyme assay and kinetic analysis, S51C mutant; type: biochemical, Agrobacterium tumefaciens; details: other: S51C, pH 7.0, 10 mM L-glutamine, 2.5–100 μM chorismate, 25.0 °C
From the text: as §1, §2, §3, §4

NC(=O)CC[C@H](N)C(=O)O [10] = assay: as above; type: biochemical, Agrobacterium tumefaciens; details: other: S51C, pH 7.0, 200 μM chorismate, 0.1–2 mM L-glutamine, 25.0 °C
From the text: as §1, §2, §3, §4

[11] = system: C=C(O[C@@H]1C=C(C(=O)O)C=C[C@H]1O)C(=O)O; assay: Anthranilate synthase enzyme assay and kinetic analysis, S51F mutant; type: biochemical, Agrobacterium tumefaciens; details: other: S51F, pH 7.0, 10 mM L-glutamine, 2.5–100 μM chorismate, 25.0 °C
From the text: as §1, §2, §3, §4

NC(=O)CC[C@H](N)C(=O)O [12] = assay: as above; type: biochemical, Agrobacterium tumefaciens; details: other: S51F, pH 7.0, 200 μM chorismate, 0.1–2 mM L-glutamine, 25.0 °C
From the text: as §1, §2, §3, §4

[13] = system: Agrobacterium tumefaciens AS; assay: Anthranilate synthase enzyme assay and kinetic analysis of purified enzymes; type: biochemical; details: for IC50: inhibition by L-tryptophan
Description: as §3
The standard assay for Agrobacterium tumefaciens AS was performed at 25° C. in an assay buffer containing 100 mM potassium phosphate, pH 7.0, 1 0 mM MgCl2, 1 mM dithiothreitol, 200 μM chorismate and 10 mM L-glutamine. The reaction was started by adding 30 μl of enzyme to the reaction mixture and mixing. The formation of anthranilate was directly monitored by the absorbance increase at […] for 3 min. Initial rate of reaction was calculated as unit absorbance increase per second based on the slope of the absorbance change over the reaction time. Km for chorismate (Km^Cho) was determined in the total volume of 1 ml assay buffer containing 100 mM potassium phosphate, pH 7.0, 10 mM MgCl2, 1 mM dithiothreitol with 10 mM L-glutamine and varying the concentration of chorismate between 2.5–100 μM chorismate. The Km for glutamine (Km^Gln) was determined in the total volume of 1 ml assay buffer containing 100 mM potassium phosphate, pH 7.0, 10 mM MgCl2, 1 mM dithiothreitol with 200 μM chorismate and varying the concentration of L-glutamine between 0.1–2 mM L-glutamine. IC50 for tryptophan (IC50TrP) was determined with in the total volume of 1 ml assay buffer containing 100 mM potassium phosphate, pH 7.0, 10 mM MgCl2, 1 mM dithiothreitol, 10 mM L-glutamine, 200 μM chorismate and varying the concentration of L-tryptophan between 0.1–10 mM L-tryptophan. Kinetic parameters and IC50 of AS were calculated after fitting the data to a non-linear regression program (GraFit).

[14] = Km for chorismate, 10 mM L-glutamine, pH 7.0, 25° C., read-out: Km^Cho
[15] = Km for glutamine, 200 μM chorismate, pH 7.0, read-out: Km^Gln
[16] = 10 mM L-glutamine, 200 μM chorismate

Agrobacterium tumefaciens anthranilate synthase variant N52F, SEQ ID NO:62 (Agrobacterium fabrum str. C58; N52F)
Km [1]: 5.5 µM
kcat [1]: 0.21 s⁻¹
kcat/Km [1]: 38200 M⁻¹ s⁻¹
Km (NC(=O)CC[C@H](N)C(=O)O [2]): 40 µM

Agrobacterium tumefaciens anthranilate synthase variant P293A, SEQ ID NO:63 (Agrobacterium fabrum str. C58; P293A)
Km [3]: 24 µM
kcat [3]: 0.35 s⁻¹
kcat/Km [3]: 14600 M⁻¹ s⁻¹
Km (NC(=O)CC[C@H](N)C(=O)O [4]): 160 µM

Agrobacterium tumefaciens anthranilate synthase variant P293G, SEQ ID NO:64 (Agrobacterium fabrum str. C58; P293G)
Km [5]: 33 µM
kcat [5]: 0.48 s⁻¹
kcat/Km [5]: 14500 M⁻¹ s⁻¹
Km (NC(=O)CC[C@H](N)C(=O)O [6]): 70 µM

Agrobacterium tumefaciens anthranilate synthase variant S50K, SEQ ID NO:69 (Agrobacterium fabrum str. C58; S50K)
Km [7]: 13 µM
kcat [7]: 0.13 s⁻¹
kcat/Km [7]: 10000 M⁻¹ s⁻¹
Km (NC(=O)CC[C@H](N)C(=O)O [8]): 10 µM

Agrobacterium tumefaciens anthranilate synthase variant S51C, SEQ ID NO:61 (Agrobacterium fabrum str. C58; S51C)
Km [9]: 2.8 µM
kcat [9]: 0.15 s⁻¹
kcat/Km [9]: 53600 M⁻¹ s⁻¹
Km (NC(=O)CC[C@H](N)C(=O)O [10]): 80 µM

Agrobacterium tumefaciens anthranilate synthase variant S51F, SEQ ID NO:60 (Agrobacterium fabrum str. C58; S51F)
Km [11]: 10 µM
kcat [11]: 0.08 s⁻¹
kcat/Km [11]: 8000 M⁻¹ s⁻¹
Km (NC(=O)CC[C@H](N)C(=O)O [12]): 60 µM

B1: F298A (protein)
chain: MVTIIQDDGAETYETKGGIQVSRKRRPTDYANAIDNYIEKLDSHRGAVFSSNYEYPGRYTRWDTAIVDPPLGISCFGRKMWIEAYNGRGEVLLDFITEKLKATPDLTLGASSTRRLDLTVNEPDRVFTEEERSKIPTVFTALRAIVDLFYSSADSAIGLFGAFGYDLAFQFDAIKLSLARPEDQRDMVLFLPDEILVVDHYSAKAWIDRYDFEKDGMTTDGKSSDITPDPFKTTDTIPPKGDHRPGEYSELVVKAKESFRRGDLFEVVPGQKFMERCESNPSAISRRLKAINPSPYSAFINLGDQEYLVGASPEMFVRVSGRRIETCPISGTIKRGDDPIADSEQILKLLNSKKDESELTMCSDVDRNDKSRVCEPGSVKVIGRRQIEMYSRLIHTVDHIEGRLRDDMDAFDGFLSHAWAVTVTGAPKLWAMRFIEGHEKSPRAWYGGAIGMVGFNGDMNTGLTLRTIRIKDGIAEVRAGATLLNDSNPQEEEAETELKASAMISAIRDAKGTNSAATKRDAAKVGTGVKILLVDHEDSFVHTLANYFRQTGATVSTVRSPVAADVFDRFQPDLVVLSPGPGSPTDFDCKATIKAARARDLPIFGVCLGLQALAEAYGGELRQLAVPMHGKPSRIRVLEPGLVFSGLGKEVTVGRYHSIFADPATLPRDFIITAESEDGTIMGIEHAKEPVAAVQFHPESIMTLGQDAGMRMIENVVVHLTRKAKTKAA
kcat [13]: 0.46 s⁻¹
Km [13, 14]: 9.2 µM
Km [13, 15]: 100 µM
IC50 [13, 16]: 5.5 µM

B2: F298W (protein)
chain: MVTIIQDDGAETYETKGGIQVSRKRRPTDYANAIDNYIEKLDSHRGAVFSSNYEYPGRYTRWDTAIVDPPLGISCFGRKMWIEAYNGRGEVLLDFITEKLKATPDLTLGASSTRRLDLTVNEPDRVFTEEERSKIPTVFTALRAIVDLFYSSADSAIGLFGAFGYDLAFQFDAIKLSLARPEDQRDMVLFLPDEILVVDHYSAKAWIDRYDFEKDGMTTDGKSSDITPDPFKTTDTIPPKGDHRPGEYSELVVKAKESFRRGDLFEVVPGQKFMERCESNPSAISRRLKAINPSPYSWFINLGDQEYLVGASPEMFVRVSGRRIETCPISGTIKRGDDPIADSEQILKLLNSKKDESELTMCSDVDRNDKSRVCEPGSVKVIGRRQIEMYSRLIHTVDHIEGRLRDDMDAFDGFLSHAWAVTVTGAPKLWAMRFIEGHEKSPRAWYGGAIGMVGFNGDMNTGLTLRTIRIKDGIAEVRAGATLLNDSNPQEEEAETELKASAMISAIRDAKGTNSAATKRDAAKVGTGVKILLVDHEDSFVHTLANYFRQTGATVSTVRSPVAADVFDRFQPDLVVLSPGPGSPTDFDCKATIKAARARDLPIFGVCLGLQALAEAYGGELRQLAVPMHGKPSRIRVLEPGLVFSGLGKEVTVGRYHSIFADPATLPRDFIITAESEDGTIMGIEHAKEPVAAVQFHPESIMTLGQDAGMRMIENVVVHLTRKAKTKAA
kcat [13]: 0.44 s⁻¹
Km [13, 14]: 18 µM
Km [13, 15]: 140 µM
IC50 [13, 16]: 450 µM
